This note sets out measurements from publication PMC6949295 (2020).

B1: Exo70-Flag [rat] / HA-Exo84 [not stated] (parent complex)
chain 1: MIPPQEASARRREIEDKLKQEEETLSFIRDSLEKSDQLTKNMVSILSSFESRLMKLENSIIPVHKQTENLQRLQENVEKTLSCLDHVISYYHVASDTEKIIREGPTGRLEEYLGSMAKIQKAVEYFQDNSPDSPELNKVKLLFERGKESLESEFRSLMTRHSKVISPVLVLDLISADDELEVQEDVVLEHLPESVLQDVIRISRWLVEYGRNQDFMNVYYQIRSSQLDRSIKGLKEHFRKSSSSSGVPYSPAIPNKRKDTPTKKPIKRPGRDDMLDVETDAYIHCVSAFVRLAQSEYQLLMGIIPEHHQKKTFDSLIQDALDGLMLEGENIVSAARKAIIRHDFSTVLTVFPILRHLKQTKPEFDQVLQGTAASTKNKLPGLITSMETIGAKALEDFADNIKNDPDKEYNMPKDGTVHELTSNAILFLQQLLDFQETAGAMLASQETSSSATSYNSEFSKRLLSTYICKVLGNLQLNLLSKSKVYEDPALSAIFLHNNYNYILKSLEKSELIQLVAVTQKTAERSYREHIEQQIQTYQRSWLKVTDYIAEKNLPVFQPGVKLRDKERQMIKERFKGFNDGLEELCKIQKAWAIPDTEQRDKIRQAQKSIVKETYGAFLHRYSSVPFTKNPEKYIKYRVEQVGDMIDRLFDTSA
chain 2: MSDSGASRLRRQLESGGFEARLYVKQLSQQSDGDRDLQEHRQRVQALAEETAQNLKRNVYQNYRQFIETAREISYLESEMYQLSHLLTEQKSSLESIPLALLPAAAAGASTGEDTAGAGPRERGAAQAGFLPGPAGVPREGPGTGEEGKQRTLTTLLEKVEGCRDLLETPGQYLVYNGDLVEYEADHMAQLQRVHGFLMNDCLLVATWLPQRRGMYRYNALYPLDRLAVVNVKDNPPMKDMFKLLMFPESRIFQAENAKIKREWLEVLEETKRALSDKRRREQEEAAALRAPPPVTSKGSNPFEDEAEEELATPEAEEEKVDLSMEWIQELPEDLDVCIAQRDFEGAVDLLDKLNHYLEDKPSPPSVKELRAKVDERVRQLTEVLVFELSPDRSLRGGPKATRRAVSQLIRLGQCTKACELFLRNRAAAVHTAIRQLRIEGATLLYIHKLCHVFFTSLLETAREFETDFAGTDSGCYSAFVVWARSAMGMFVDAFSKQVFDSKESLSTAAECVKVAKEHCQQLGEIGLDLTFIIHALLVKDIQGALLSYKEIIIEATKHRNSEEMWRRMNLMTPEALGKLKEEMRSCGVSNFEQYTGDDCWVNLSYTVVAFTKQTMGFLEEALKLYFPELHMVLLESLVEVILVAVQHVDYSLRCEQDPEKKTFIRQNASFLYDTVLPVVERRFEEGVGKPAKQLQDLRNASRLLRVNPESTTSVV

This test covers variants of B1. Briefly: co-immunoprecipitation (IP: HA, blot: Flag); 293T cells; parent: 0.13.
Consider chain 1 S47D, chain 1 S59D, chain 1 S89D, for which the response amounted to 0 relative band intensity.
